The test deals with DPP9, short isoform (DPP9S), co-expressed with CARD8 for cryo-EM (human), Q86TI2. The test is described as follows: cryo-EM structure. The note with it: remark: other sources report otherwise.

B1: DPP9, short isoform (DPP9S), co-expressed with CARD8 for cryo-EM, Q86TI2-1 1-863 (enzyme)
chain: MATTGTPTADRGDAAATDDPAARFQVQKHSWDGLRSIIHGSRKYSGLIVNKAPHDFQFVQKTDESGPHSHRLYYLGMPYGSRENSLLYSEIPKKVRKEALLLLSWKQMLDHFQATPHHGVYSREEELLRERKRLGVFGITSYDFHSESGLFLFQASNSLFHCRDGGKNGFMVSPMKPLEIKTQCSGPRMDPKICPADPAFFSFINNSDLWVANIETGEERRLTFCHQGLSNVLDDPKSAGVATFVIQEEFDRFTGYWWCPTASWEGSEGLKTLRILYEEVDESEVEVIHVPSPALEERKTDSYRYPRTGSKNPKIALKLAEFQTDSQGKIVSTQEKELVQPFSSLFPKVEYIARAGWTRDGKYAWAMFLDRPQQWLQLVLLPPALFIPSTENEEQRLASARAVPRNVQPYVVYEEVTNVWINVHDIFYPFPQSEGEDELCFLRANECKTGFCHLYKVTAVLKSQGYDWSEPFSPGEDEFKCPIKEEIALTSGEWEVLARHGSKIWVNEETKLVYFQGTKDTPLEHHLYVVSYEAAGEIVRLTTPGFSHSCSMSQNFDMFVSHYSSVSTPPCVHVYKLSGPDDDPLHKQPRFWASMMEAASCPPDYVPPEIFHFHTRSDVRLYGMIYKPHALQPGKKHPTVLFVYGGPQVQLVNNSFKGIKYLRLNTLASLGYAVVVIDGRGSCQRGLRFEGALKNQMGQVEIEDQVEGLQFVAEKYGFIDLSRVAIHGWSYGGFLSLMGLIHKPQVFKVAIAGAPVTVWMAYDTGYTERYMDVPENNQHGYEAGSVALHVEKLPNEPNRLLILHGFLDENVHFFHTNFLVSQLIRAGKPYQLQIYPNERHSIRCPESGEHYEVTLLHFLQEYL
What is called stoichiometry N is the number of molecules, sites or subunits per partner or assembly. As to B1, the stoichiometry N came to 2.

The record behind these values is article doi:10.1101/2021.01.13.426575.
